Experiment [1] addresses T1, Biotin sY51 PSGL-1(42-62) peptide (human, sulfotyrosine at Y51; C-terminal Lys-biotin).
T1 construct: also called Y51(SO3) PSGL-1(42-62)
T1 peptide: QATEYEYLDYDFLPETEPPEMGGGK
Kind of experiment: ELISA, plate-bound mAb captures biotin peptide. The method, then:
(§1) Two ELISA methods were performed. One procedure detected mAb binding to its plate-immobilized target and the other measured the immobilized antibody's ability to capture biotinylated PSGL-1₄₂₋₆₂. […] The plate was incubated for 45 min at 37° C. Plates were washed 3 times with wash buffer (PBS containing 0.05% tween 20, pH 7.4) and a single concentration (2 to 500 nM) or serially diluted (0.002-100 nM) anti-PSGL-1 mAb was added (25 ul/well) in assay buffer into appropriate wells. The plate was incubated for 45 min at 37° C., washed 3 times, and an appropriate HRP-conjugated secondary antibody added (25 ul/well) (HRP goat anti-mouse or anti-human IgG). After 45 min incubation at 37° C., the plate was washed, and antibody bound to plate-immobilized target was determined at A450 nm using HRP substrate (3,3′,5,5′-etramethylbenzidine (TMB)). For each antibody, duplicate values were averaged and assay background was subtracted. Except for the following, ELISAs involving plate-immobilized mAb capturing of biotinylated PSGL-1₄₂₋₆₂ peptides was performed in the same manner as described above: 3 ug/mL/25 ul per well of mAb was coated directly onto microtiter plate wells; biotinylated unmodified or sulfotyrosine PSGL-1₄₂₋₆₂ was serially diluted (3 nM-3 uM) into appropriate wells, and antibody-bound peptide was detected using HRP-streptavidin (Jackson Immunoresearch, Cat. #016-030-084).

Experiment [2] deals with T2, Biotin Y46,48,51(SO3) PSGL-1(42-62) peptide (human, sulfotyrosine at Y46, Y48 and Y51; C-terminal Lys-biotin).
T2 construct: also called fully sulfated N-terminal PSGL-1 peptide
T2 peptide: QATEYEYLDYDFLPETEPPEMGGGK
The experiment in a line: ELISA, plate-bound mAb captures biotin peptide. The method, then:
as §1
In general terms: An ELISA detects its analyte on a solid surface through an enzyme-linked reagent.

For experiment [3], the target named is T3, Biotin sY48 PSGL-1(42-62) peptide (human, sulfotyrosine at Y48; C-terminal Lys-biotin).
T3 construct: also called sY48S
T3 peptide: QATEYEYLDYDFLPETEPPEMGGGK
Kind of experiment: ELISA, plate-bound mAb captures biotin peptide. As for the experimental part:
as §1

Experiment [4] deals with T4, Biotin sY46 PSGL-1(42-62) peptide (human, sulfotyrosine at Y46; C-terminal Lys-biotin).
T4 peptide: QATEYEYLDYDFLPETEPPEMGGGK
Kind of experiment: ELISA, plate-bound mAb captures biotin peptide. The method, then: as §1

Experiment [5] concerns the target T2, Biotin Y46,48,51(SO3) PSGL-1(42-62) …. Kind of experiment: ELISA, plate-bound target. The method, then:
as §1

Experiment [6] addresses T5, Biotin PSGL-1(42-62) peptide, unmodified (human, C-terminal Lys-biotin).
T5 construct: Residues 42-62 followed by GGGK-biotin; also called WT; wild-type
T5 peptide: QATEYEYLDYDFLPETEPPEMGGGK
Kind of experiment: ELISA, plate-bound target. As for the experimental part: as §1

Experiment [7] concerns the target T1, Biotin sY51 PSGL-1(42-62) peptide. Kind of experiment: ELISA, immobilized biotin peptide. The procedure, abridged:
(§2)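 In this ELISA, half-well high binding plates (Corning Cat. #3690) received 3 ug/mL/25 ul per well of biotin-tagged PSGL-1 peptides covering residues 42 to 62, diluted in PBS, pH 7.4, and coated overnight at 4° C. Duplicate readings for each antibody were averaged and the average assay background was subtracted. PSGL-1 protein or peptide was the positive control.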

Experiment [8] concerns the target T6, Scrambled Y46,48,51(SO3) PSGL-1(42-62) biotin peptide (sulfotyrosine at peptide positions 5, 7 and 10; C-terminal Lys-biotin).
T6 construct: also called scrambled sulfated peptide: biotin
T6 peptide: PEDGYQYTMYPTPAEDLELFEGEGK
The experiment in a line: ELISA, immobilized biotin peptide. In outline:
as §2

The record followed here is patent publication US20220396632A1 (VERSEAU THERAPEUTICS, published 2022).

As a reminder, the EC50 is the midpoint of the concentration-response curve.

B1: 03D07 (antibody, IgG4, V domains shown)
VH: EVKLLESGGGLVQPGGSLRLSCAASGFTFSSYALSWVRQAPGKGLEWVSAISGSGGNTYYADSVKGRFTISRDNSKNTLYLQMNSLRAEDTAVYYCAKVVGATNYWGQGTLVTVSS
VL: DIVMTQTPLSLPVTLGQPASISCRSSQSLVYSDGHTYLSWFHQRPGQSPRRLIYKVSIRDSGVPDRFSGSGSGTDFTLKISRVEAEDVGVYYCMQRLQIPLTFGGGTKVEIK
In the case of B1, the EC50 in experiment [1] is approximately 2000 nM; in experiment [2], 39.4 nM; in experiment [3], more than 3000 nM; in experiment [4], 971 nM; in experiment [5] it was 0.13 nM; in experiment [6] it was more than 20 nM. Further, the “fold stronger binding than to the unmodified peptide” value in experiment [1] and in experiment [4] was approximately 10 fold in each case.

B2: 20I15 (antibody, V domains shown)
VH: EVKLVESGGGLVQPGGSLSLSCAASGFTFTDYYMSWVRQPPGKALEWLGFIRNKANGYTTEYSASVKGRFTISRDNSQSILYLQMNALRAEDSATYYCARTYLRRGYFDVWGTGTTVTVSS
VL: DIVLTQSPASLAVSLGQRATISCRASKSVSTSGYSYMHWFQQKPGQPPKLLIYLASNLESGVPARFSGSGSGTDFTLNIHPVEEEDAATYYCQHSRELPLTFGAGTKLELK
notes: From mouse immunisation; only variable domains given; also called 20115
Regarding B2, the EC50 in experiment [7] is 178 nM; in experiment [1] it was approximately 3000 nM; in experiment [2] it was 292 nM; in experiment [3], approximately 3000 nM; in experiment [4] it was approximately 3000 nM; in experiment [5], 0.62 nM. Further, the concentration giving a half-maximal response (EC50) in experiment [6] was approximately 30 nM. The binding result in experiment [8] is on record as “no binding”.

B3: 10F01 (antibody, IgG4, V domains shown)
VH: EVQLVQSGGGLVQPGGSLRLSCAASGFTFSSYAMSWVRQAPGKGLEWVSALRGGDGGTYHADSVKGRFTISGDSSKNTLYLQMNSLRAEDTAVYYCARRMVGAAYAFDIWGQGTMVTVSS
VL: LPVLTQPHSVSESPGKTVTISCTRSSGSIADNFVQWYRQRPGSAPTTVIYEGDQRPSGVPGRFSGSIDSSSNSASLTISGLQTDDEADYYCQSFDSYNRRTHVVFGGGTKLTVL
Regarding B3, the EC50 in experiment [1] is 36.2 nM; in experiment [2], approximately 1 nM; in experiment [3], approximately 3000 nM; in experiment [4], approximately 2000 nM; in experiment [5] it was 0.13 nM; in experiment [6] it was more than 500 nM.
